Each block holds one binder with its values, some of them ahead of it.
What was measured:
[1] = target: M44-modified E NTAA target peptides; assay: encoding assay; P2 D;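 further: fraction of recording tags encoded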
[2] = target: M44-modified V NTAA target peptides; assay: encoding assay; P2 D;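 further: fraction of recording tags encoded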
[3] = target: M44-modified T NTAA target peptides; assay: encoding assay; P2 D;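 further: fraction of recording tags encoded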
[4] = target: M44-modified H NTAA target peptides; assay: encoding assay; P2 D;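 further: fraction of recording tags encoded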
[5] = target: M44-modified S NTAA target peptides; assay: encoding assay; P2 D
[6] = target: M44-modified D NTAA target peptides; assay: encoding assay; P2 D;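 further: fraction of recording tags encoded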
[7] = target: M44-modified P NTAA target peptides; assay: encoding assay; P2 D;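 further: fraction of recording tags encoded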
[8] = target: M44-modified G NTAA target peptides (M44-G-P2-peptide); assay: encoding assay; P2 Q;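 further: fraction of recording tags encoded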
[9] = target: M44-modified T NTAA target peptides; assay: encoding assay; P2 Q;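 further: fraction of recording tags encoded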
[10] = target: M44-modified W NTAA target peptides; assay: encoding assay; P2 Q;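 further: fraction of recording tags encoded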
[11] = target: M44-modified E NTAA target peptides; assay: encoding assay; P2 S;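 further: fraction of recording tags encoded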
[12] = target: M44-modified N NTAA target peptides; assay: encoding assay; P2 S
[13] = target: M44-modified W NTAA target peptides; assay: encoding assay; P2 S;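 further: fraction of recording tags encoded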
[14] = target: M44-modified S NTAA target peptides; assay: encoding assay; P2 S
[15] = target: M44-modified D NTAA target peptides; assay: encoding assay; P2 S;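 further: fraction of recording tags encoded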
[16] = target: M17-modified Y NTAA target peptides (M17-Y-P2-peptide); assay: encoding assay; P2 D;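 further: fraction of recording tags encoded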
[17] = target: M17-modified G NTAA target peptides; assay: encoding assay; P2 D;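 further: fraction of recording tags encoded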
[18] = target: M17-modified F NTAA target peptides; assay: encoding assay; P2 D;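 further: fraction of recording tags encoded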
[19] = target: M17-modified T NTAA target peptides; assay: encoding assay; P2 D;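 further: fraction of recording tags encoded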
[20] = target: M17-modified A NTAA target peptides; assay: encoding assay; P2 D;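 further: fraction of recording tags encoded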
[21] = target: M17-modified Q NTAA target peptides; assay: encoding assay; P2 D;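 further: fraction of recording tags encoded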
[22] = target: M17-modified V NTAA target peptides; assay: encoding assay; P2 D;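 further: fraction of recording tags encoded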
[23] = target: M17-modified P NTAA target peptides; assay: encoding assay; P2 D;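 further: fraction of recording tags encoded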
[24] = target: M17-modified E NTAA target peptides; assay: encoding assay; P2 D;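 further: fraction of recording tags encoded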
[25] = target: M17-modified L NTAA target peptides; assay: encoding assay; P2 D;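 further: fraction of recording tags encoded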
[26] = target: M17-modified D NTAA target peptides; assay: encoding assay; P2 D;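 further: fraction of recording tags encoded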
[27] = target: M17-modified W NTAA target peptides; assay: encoding assay; P2 D;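 further: fraction of recording tags encoded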
[28] = target: M17-modified S NTAA target peptides; assay: encoding assay; P2 D;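 further: fraction of recording tags encoded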
[29] = target: M17-modified H NTAA target peptides; assay: encoding assay; P2 D;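 further: fraction of recording tags encoded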
[30] = target: M17-modified N NTAA target peptides; assay: encoding assay; P2 D;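 further: fraction of recording tags encoded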
[31] = target: M17-modified G NTAA target peptides; assay: encoding assay; P2 Q;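 further: fraction of recording tags encoded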
[32] = target: M17-modified F NTAA target peptides; assay: encoding assay; P2 Q;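 further: fraction of recording tags encoded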
[33] = target: M17-modified T NTAA target peptides; assay: encoding assay; P2 Q;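 further: fraction of recording tags encoded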
[34] = target: M17-modified V NTAA target peptides; assay: encoding assay; P2 Q;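 further: fraction of recording tags encoded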
[35] = target: M17-modified P NTAA target peptides; assay: encoding assay; P2 Q;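 further: fraction of recording tags encoded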
[36] = target: M17-modified I NTAA target peptides; assay: encoding assay; P2 Q;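 further: fraction of recording tags encoded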
[37] = target: M17-modified W NTAA target peptides; assay: encoding assay; P2 Q;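 further: fraction of recording tags encoded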
[38] = target: M17-modified H NTAA target peptides; assay: encoding assay; P2 Q;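 further: fraction of recording tags encoded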
[39] = target: M17-modified N NTAA target peptides; assay: encoding assay; P2 Q;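 further: fraction of recording tags encoded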
[40] = target: M17-modified Y NTAA target peptides (M17-Y-P2-peptide); assay: encoding assay; P2 S;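 further: fraction of recording tags encoded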
[41] = target: M17-modified G NTAA target peptides; assay: encoding assay; P2 S;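 further: fraction of recording tags encoded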
[42] = target: M17-modified F NTAA target peptides; assay: encoding assay; P2 S;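 further: fraction of recording tags encoded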
[43] = target: M17-modified T NTAA target peptides; assay: encoding assay; P2 S;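 further: fraction of recording tags encoded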
[44] = target: M17-modified M NTAA target peptides; assay: encoding assay; P2 S;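 further: fraction of recording tags encoded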
[45] = target: M17-modified A NTAA target peptides; assay: encoding assay; P2 S;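 further: fraction of recording tags encoded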
[46] = target: M17-modified Q NTAA target peptides; assay: encoding assay; P2 S;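 further: fraction of recording tags encoded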
[47] = target: M17-modified V NTAA target peptides; assay: encoding assay; P2 S;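 further: fraction of recording tags encoded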
[48] = target: M17-modified P NTAA target peptides; assay: encoding assay; P2 S;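 further: fraction of recording tags encoded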
[49] = target: M17-modified I NTAA target peptides; assay: encoding assay; P2 S;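 further: fraction of recording tags encoded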
[50] = target: M17-modified E NTAA target peptides; assay: encoding assay; P2 S;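 further: fraction of recording tags encoded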
[51] = target: M17-modified L NTAA target peptides; assay: encoding assay; P2 S;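 further: fraction of recording tags encoded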
[52] = target: M17-modified D NTAA target peptides; assay: encoding assay; P2 S;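 further: fraction of recording tags encoded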
[53] = target: M17-modified S NTAA target peptides; assay: encoding assay; P2 S;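 further: fraction of recording tags encoded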
[54] = target: M17-modified H NTAA target peptides; assay: encoding assay; P2 S;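 further: fraction of recording tags encoded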
[55] = target: M17-modified N NTAA target peptides; assay: encoding assay; P2 S;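 further: fraction of recording tags encoded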

encoding yield [1]: 0.01
encoding yield [2]: 0.03
encoding yield [3]: 0.01
encoding yield [4]: 0.01
encoding yield [5]: 0.01
encoding yield [6]: 0.02
encoding yield [7]: 0.01
encoding yield [8]: 0.01
encoding yield [9]: 0.02
encoding yield [10]: 0.02
encoding yield [11]: 0.01
encoding yield [12]: 0.01
encoding yield [13]: 0.01
encoding yield [14]: 0.01
encoding yield [15]: 0.02
B1: engineered M44-A binder (SEQ ID NO: 42) (designed binder, not shown: small tags and cut ends; large carriers)
chain: QVSVQPNFQQDKFLGRWFVAGLASNSSWDREKVAALSGAKMVVAPATDGGLNVTRTMLRKNQCETYTGLLQPAGSLGSYSWRSPHPGSTGSESVVETDYDQYALVYGQGSKGPGEDLRAAALWSRTQTPRAELKEKFTAFSKAQGFTEDTIVFLPQTDKCMTEQ

encoding yield [1]: 0.01
encoding yield [2]: 0.03
encoding yield [3]: 0.01
encoding yield [4]: 0.01
encoding yield [5]: 0.01
encoding yield [6]: 0.01
encoding yield [7]: 0.01
encoding yield [8]: 0.01
encoding yield [9]: 0.02
encoding yield [10]: 0.02
encoding yield [11]: 0.01
encoding yield [12]: 0.01
encoding yield [13]: 0.01
encoding yield [14]: 0.01
encoding yield [15]: 0.02
B2: engineered M44-L binder (SEQ ID NO: 31) (designed binder, not shown: small tags and cut ends; large carriers)
chain: QDSTQNLIPAPPLISVPLQPGFWTERFQGRWFLVGFAGNAVQKERQSRLTMQSLILELQEDNSYNITAINVRGQGCRYIISTLVPSSRPGQFTLGNIHSYPQIQSLDVQVADTDYDQFAMVFLQGTSENKQYFEVALAGRTKGLSDELKERFVSFAKSLGLKDNNIVFSVPTDQCIDN

encoding yield [16]: 0.05
encoding yield [17]: 0.03
encoding yield [18]: 0.04
encoding yield [19]: 0.01
encoding yield [20]: 0.02
encoding yield [21]: 0.01
encoding yield [22]: 0.02
encoding yield [23]: 0.01
encoding yield [24]: 0.02
encoding yield [25]: 0.02
encoding yield [26]: 0.01
encoding yield [27]: 0.02
encoding yield [28]: 0.01
encoding yield [29]: 0.01
encoding yield [30]: 0.02
encoding yield [31]: 0.02
encoding yield [32]: 0.04
encoding yield [33]: 0.01
encoding yield [34]: 0.03
encoding yield [35]: 0.01
encoding yield [36]: 0.02
encoding yield [37]: 0.01
encoding yield [38]: 0.04
encoding yield [39]: 0.03
encoding yield [40]: 0.1
encoding yield [41]: 0.03
encoding yield [42]: 0.04
encoding yield [43]: 0.02
encoding yield [44]: 0.04
encoding yield [45]: 0.02
encoding yield [46]: 0.01
encoding yield [47]: 0.02
encoding yield [48]: 0.01
encoding yield [49]: 0.03
encoding yield [50]: 0.01
encoding yield [51]: 0.02
encoding yield [52]: 0.01
encoding yield [53]: 0.01
encoding yield [54]: 0.02
encoding yield [55]: 0.02
B3: engineered M17-Y binder (SEQ ID NO: 61) (designed binder, not shown: small tags and cut ends; large carriers)
chain: TVPDRSEIAGKWYVVALASNTEFYLREKDWVKSAMARISFLGEDELKVSSAVPSPNGCYKVERTWKKTSDDGEVYNSRAAKLKVEVLDTDYKSYAVIYATRVKDGRTDHQMILYSRSPEVSPAATAIFRKLAGERNYTDEMVAMLPRQEECTVDEV

encoding yield [16]: 0.1
encoding yield [17]: 0.03
encoding yield [18]: 0.05
encoding yield [19]: 0.01
encoding yield [20]: 0.03
encoding yield [21]: 0.02
encoding yield [22]: 0.02
encoding yield [23]: 0.02
encoding yield [24]: 0.02
encoding yield [25]: 0.03
encoding yield [26]: 0.02
encoding yield [27]: 0.03
encoding yield [28]: 0.01
encoding yield [29]: 0.02
encoding yield [30]: 0.03
encoding yield [31]: 0.01
encoding yield [32]: 0.04
encoding yield [33]: 0.02
encoding yield [34]: 0.04
encoding yield [35]: 0.02
encoding yield [36]: 0.03
encoding yield [37]: 0.02
encoding yield [38]: 0.03
encoding yield [39]: 0.04
encoding yield [40]: 0.22
encoding yield [41]: 0.04
encoding yield [42]: 0.07
encoding yield [43]: 0.04
encoding yield [44]: 0.04
encoding yield [45]: 0.02
encoding yield [46]: 0.02
encoding yield [47]: 0.03
encoding yield [48]: 0.02
encoding yield [49]: 0.05
encoding yield [50]: 0.01
encoding yield [51]: 0.04
encoding yield [52]: 0.02
encoding yield [53]: 0.01
encoding yield [54]: 0.03
encoding yield [55]: 0.02
B4: upgraded binder after additional maturation round (SEQ ID NO: 62) (designed binder, not shown: small tags and cut ends; large carriers)
chain: TVPDRSEIAGKWYVVALASNTEFYLRGKDRVKSAMVRISFQGEDELKVSSAVPSPNGCYKVERTWKKTSDDGEVYNSRAAKLKVEVLDTDYKSYAVIYATRVKDRRTDHQMILYSRSPDVSPAATAIFRKLAGERNYTDEMVAMLPRQEECTVDEV

Reference: patent US20230220589A1
